Experimental data reported in PMC3001952.

Biological target: single chain trimer version of HLA-Cw6, normal length
Assay: cell-cell conjugate formation by flow cytometry; PKH26-labelled NKL cells (or KIR2DL1-expressing NKL cells) mixed with equal numbers of PKH67-labelled P815 transfectants, 30 min, fixed with 1% paraformaldehyde; percentage of NKL cells forming conjugates

percent of NKL cells forming conjugates: > 50%
Substance: KIR2DL1-CFP on NKL cells (from UniProt P43626 22-348) (receptor)
